This is an account of results in a protein production outcome set (Wang et al. 2014).

The series in a line: label from the status in PepcDB records.
Regarding “MTPRHQRPLARRKLLVALGGAVVAAPVAAAVAPHALAGIGPDGPAPAAAGALPLTIVNDTGSFGNADVHVYIVGNVDGRQVRVTPDGTVAPVALSDNGADGYTDYAIGLSGSGETKLSLPHLSGRIYVSLGEKLKFKVVADGAGNAALQYPAGWVESDPNYAVLHDCAEFTYNAAGMFCNTTMVDMFSVPLAIRLTGADDRTTGTVRPGGRAAVFEAVRKVEEFAPLVVDDTRVIAPGHGLDAGLFPKDYLAPYIDEVWSTYTGKDLRITTNAGTFTGRVRGDRLTFDGPAQVSFAKPSTRDVLFCDGNLAAPNDGTTGPVAAVLGAGFNRSTLVSSAEQPTTDPATFYGTALTNHYAKAVHAATEDGRAYGFAFDDVADFASYIQDTAPTGIRLTLGAFLEHHHHHH”, the protein production entry was “failed”.

Take “MQENHLIDIARWSERPGPRGIPSICSAHPLVIEAAMLRAHREKAPVLIEATCNQVNQDGGYTGMTPEDFTRFVGAIADRIEFPREKILLGGDHLGPNPWKHLPADEAMAKAEAMITAYAKAGFTKLHLDTSMGCAGEPTALPDATTAARAARLAAVAEDAVGGRGGVLPVYIIGTEVPIPGGALEELDTLEVTAPEAAIETVRVHRAAFEEAGAAGAFSRVVGAVVQPGVEFGNENVIAYDRARAEKLSATLGQLHGMVFEAHSTDYQTPDALRELVADGFAILKVGPGLTFALREALYGLDQIAAFLFPAARERTLAEVTEAVMREEPANWAKYYHGSAEEQRLQRHFSYSDRIRYYWPHPKAAAAVDELMSLLDGVAIPETLISQFLAGSYARVRNGEVAPQAKPLALAAVDAVLQDYFAACRV”: the protein production result was “not failed”.

As for “MNNKQLDFTEGSITKKMVVFSWPIFLSNLLQTSYQITDSLWVGNLLGASALGALSISATVVFMVLSFIIGLNGATLTVLSQRQGAKDEAGLKASLNAFVFVLGLLAILLGLIGYFSASSILQLLGTPEEILPLAESYLKINFIGILFLFGYNFIGTVLRAMGDSRSPVRFIFIAVILNIILDPLMIAGFNLGIDGAAYATIVSQGTAFIYGLIYSVRKAGVPFQIPYVPEKRYFFVLFKLGLPAGLSMITISAGVTAILSVVTSFGEEAVAGFGAAQRLDSLIMLPALTLGSAVNTIAGQNIGANKWERVRATAKQGVMLIIAVTLIIGLITFIGAQFFIRLFVRDEATVAFGAMYIQTIAFFYPFLGINFVLNGIVRASGAMFPVLLLNIISFWILRYPLTYWMSDLFGERGIALGMGFAFVVSSLIATGYYFLGNWRKVGEELAQKTGHSKV”, the protein production entry is “failed”.

On to “MKYTIEEIRQMQEGQTFDCKSILIEPKHLATIIVAMANADGGMIAVGISDKTRRIEGVNQDKEHLNDILRTPLDFCVPSVSVTTDYVPCTDAEGRDNRVLLMHIPASPRLHANQADEVFWRVGDKSRKLTFDERLQLMYDKGERYYEDSTAYDATLDDIDMDAVKAYMKRIGYGKSAMEYLQENKGFVTYKGDVPQVSAACILLFGKHPQTFFPRARVRFIKYFGTEEKVGREMNVIKDVTFDGRILEQIQKTVEYLETQVKEHSYLGEDGIFKTDREYPKFVIQEMVVNSVCHRDYSIKGTEIQIKMFDDRLVFETPGKLPGIVRTDNIRHTHFSRNPKIAEFLKAYDYVKEFGEGVDRMCRELSALGVKEPQYNLVAFIMKATVCAKVLEERQGTNHFDQKRPESDQKSDQMRIILELIKSNPNISRTELSEKTGLHDSSVKRRLKTLVDEGLIQRVGPDKGGQWKVIGSLLEHHHHHH”, for which the protein production result is recorded as “not failed”.

Take “MKRFCNGLLASALVLSLLLTGCGAAGGQQPAQASGPEQPAVRTVTDAEGNVVEVPQDISRIAVTPLPWSSVVSAIDGGSQRLASINPGALKAYSGSFFAKLDKNYATLDDTSIGSDFSINVEELLNRQVQVVIIWEYQTAEAAKLKDVGIVPVMVKNGNVQELQDSFKAVGQLLGKEERAKWVNDEYAKAYEKMKSYGEQVKKADKPRVLYLKRSDLTLQGNDNFIKESMELAGADNIAAEAKSITMEEILKLDPEIILLSDFDKFLPQDLYENRIEGQDWSSVSAVVNKRVYKTPVGIYRWDAPGVETPLMMFWLGKMLQPEIFSEVDLKAEMKAFYQDVFDYSLTDEDFGQIFNDKANAASERRIS”: the protein production entry was “failed”.

Regarding “MTIKALFWDIGGVLLTNGWDREQRADVAQRFGLDTDDFTERHRLAAPELELGRMTLAEYLEQVVFYQPRDFTPEDFRAVMEEQSQPRPEVLALARDLGQRYRMYSLNNEGRDLNEYRIRTFGLGEFLLAFFTSSALGVMKPNPAMYRLGLTLAQVRPEEAVMVDDRLQNVQAARAVGMHAVQCVDAAQLREELAALGVR”, the protein production entry is recorded as “not failed”.

In the case of “MSEADGLRQRRPLRPQVVTDDGQVPEVKEGSSFSGRVFRMTFLMLAVSLAIPLLGAMMLLESPIDPQSFSFKEPPFMFGVLHPNTKLRQAERLFENQLSGPESIVNIGDVLFTGTADGRVVKLENGEIETIARFGSGPCKTRDDEPTCGRPLGIRAGPNGTLFVVDAYKGLFEVNPQKRSVKLLLSSETPIEGKKMSFVNDLTVTRDGRKIYFTDSSSKWQRRDYLLLVMEATDDGRLLEYDTVTKEVKVLLDQLQFPNGVQLSPEEDFVLVAETTMARIRRVYVSGLMKGGADMFVENMPGFPDNIRPSSSGGYWVAAATIRANPGFSMLDFLSDKPFIKRMIFKMFSQETVMKFVPRYSLVLEVSDSGAFRRSLHDPDGQVVTYVSEAHEHDGYLYLGSFRSPFICRLSLQSI”, the protein production result was “failed”.

As for “MRIHDIDPDNRPRERFLRSGKESLSPAELLALILRSGTAGLNIIDTCNKLISEHGLERLADLSIQELQKTPGIGEAKAMQIAAIFELQRRLHFARNMNLKVKGARDVFEYMKGRIPDETKEHLFVLFLSTKNQILRHETITIGTLTASLIHPREIFKAAIRESAHSIILVHNHPSGDVQPSNADKQVTSILKKAGDLLQIELLDHVIVGNNDWFSFRDHALL”, the protein production entry is “failed”.

As to “NFATGTIATDPLNDSQVAVIASISKEMPGISISTSWDRKVLETSLSSIVGSVSSEKAGLPAEEAEAYLKKGYSLNDRVGTSYLEKQYEETLQGKRSVKEIHLDKYGNMESVDTIEEGSKGNNIKLTID”, the protein production result is recorded as “failed”.

Turning to “MDMFGVAVLIFLVTDPFGNIAVFLAALKGVAPGRRLRVAFRELAFALGLLLLFLTLGEHILSGLGLSREATGIAGGIILFVIAMRLIFPSPQGLLGEVPDGEPLLVPLATPAVAGPSALAMLITLRTTFDGPLWELYLAVVLAWAATALILLQAAFLQRFLGPRGLTAIERLAGMLLIMLSVDMLLDNLRSVLHIAA”, the protein production result is on record as “failed”.

“MKRVLVLGATGRTGNFVIKELSKYKSIQLIAGLRSQKDKERLPKINAAIETVVIDIADVCSLRKALTDSDIVVQAIRLRGDISENALIQLDQRIHQAFNPSRKTHLVTVGGAGALKLEANQRFWENEYFPRQTLPRGIAHARLRDYLEKSFFNHTWTYLIPPPVYVAEGARTGSYNRYSSAQKEDFFLSKSISYADFALAIGNAVMEEWQGVYLIAEKELEHHHHHH”: the protein production result was “failed”.

On to “MPHPFVYHDCPMSRLLFRYICTETAVPFALGLTVFTFVLLMGRLLKLAEMVFARGVPFLDVTRLILYMLPSFFLVAIPMAFLLAVLLAMGRLSADSEVTAMKASGMSIGTIAVPVIAFGVITYAATTFVSVYALPWGNTAFKKFLHGVIETRAAMSITEKVFNDEFPGLVIYVDGFDPKSGRISGILIHDERNPDEPSTIFAASGQLATNPEERIVRLRLNNGGIHRGIGTGGYRLVEFTSYDLSIALQREQQKARLNEEDMTLGELLARMKSPGEQPKLVREMHFELHKRFALPFACVVFAVIAVPLGIQNQRSGRAGGFAAGIILLMLYYILMSAGKTVNEKGIAPAFVAVWIPNVLFLGLGIFLLKRAALDRAIPLAEYVTTALAWVRHRFERRKT”, for which the protein production result is listed as “failed”.

Consider “MSFVAGVIRRLDETVVNRIAAGEVIQRPANAIKEMIENCLDAKSTSIQVIVKEGGLKLIQIQDNGTGIRKEDLDIVCERFTTSKLQSFEDLASISTYGFRGEALASISHVAHVTITTKTADGKCAYRASYSDGKLKAPPKPCAGNQGTQITVEDLFYNIATRRKALKNPSEEYGKILEVVGRYSVHNAGISFSVKKQGETVADVRTLPNASTVDNIRSIFGNAVSRELIEIGCEDKTLAFKMNGYISNANYSVKKCIFLLFINHRLVESTSLRKAIETVYAAYLPKNTHPFLYLSLEISPQNVDVNVHPTKHEVHFLHEESILERVQQHIESKLLGSNSSRMYFTQTLLPGLAGPSGEMVK”, for which the protein production result was “failed”.
